Here are results for four molecules from patent publication US20250171542A1 (ADEPT THERAPEUTICS, published 2025).

The target in test [1] is T1, human PD-L1 expressed on cell surface (human, UniProt Q9NZQ7 19-290).
T1 construct: also called cell surface PD-L1
The test is described as follows: flow cytometry, MDA-MB-231-GFP cells. The procedure:
Cells were then resuspended in FACS buffer (1×DPBS/1% FBS) at 10⁶/ml concentration. One hundred microliter (100 μl) of cells were aliquoted into a single well in 96 well plates. The antibodies to be tested were serially diluted at 1:3 fold starting at 15 ug/mL and were then added into each well. The antibodies were mixed with cells and the mixtures were incubated on ice for 1 hour. […] After washing with FACS buffer, stained cells were resuspended at diluted […] (Biolegend, Cat #420404, used at 1:100 dilution) and analyzed on Guava 11HT (Luminex). Data was analyzed using Flowjo software.
(§1) Anti-HEL isotype control (Biolntron) was used as negative control.

Test [2] concerns the target T2, CD80 (Sino Biological, Cat #10698-H08H) (UniProt P33681 35-242).
T2 sequence (looked up): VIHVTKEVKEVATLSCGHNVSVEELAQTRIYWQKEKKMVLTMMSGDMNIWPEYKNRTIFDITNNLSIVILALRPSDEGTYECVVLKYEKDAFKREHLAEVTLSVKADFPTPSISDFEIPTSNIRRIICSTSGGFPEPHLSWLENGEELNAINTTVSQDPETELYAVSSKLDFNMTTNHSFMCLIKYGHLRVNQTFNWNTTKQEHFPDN
The test can be described thus: ELISA.

For test [3], the target named is T3, BH-H2 (Sino Biological, Cat #11559-H08H) (UniProt O75144 19-258).
T3 sequence (looked up): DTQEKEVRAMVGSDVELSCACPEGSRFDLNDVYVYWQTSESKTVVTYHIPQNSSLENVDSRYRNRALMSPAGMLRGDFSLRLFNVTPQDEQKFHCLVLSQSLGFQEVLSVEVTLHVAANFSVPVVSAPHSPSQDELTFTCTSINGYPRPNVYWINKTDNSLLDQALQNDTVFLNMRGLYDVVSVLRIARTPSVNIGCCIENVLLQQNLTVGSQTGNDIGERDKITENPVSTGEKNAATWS
The test is described as follows: ELISA.

Test [4] has as its target T4, B7-H3 (Sino Biological, Cat #11188-H08H) (UniProt Q5ZPR3 29-461).
T4 sequence (looked up): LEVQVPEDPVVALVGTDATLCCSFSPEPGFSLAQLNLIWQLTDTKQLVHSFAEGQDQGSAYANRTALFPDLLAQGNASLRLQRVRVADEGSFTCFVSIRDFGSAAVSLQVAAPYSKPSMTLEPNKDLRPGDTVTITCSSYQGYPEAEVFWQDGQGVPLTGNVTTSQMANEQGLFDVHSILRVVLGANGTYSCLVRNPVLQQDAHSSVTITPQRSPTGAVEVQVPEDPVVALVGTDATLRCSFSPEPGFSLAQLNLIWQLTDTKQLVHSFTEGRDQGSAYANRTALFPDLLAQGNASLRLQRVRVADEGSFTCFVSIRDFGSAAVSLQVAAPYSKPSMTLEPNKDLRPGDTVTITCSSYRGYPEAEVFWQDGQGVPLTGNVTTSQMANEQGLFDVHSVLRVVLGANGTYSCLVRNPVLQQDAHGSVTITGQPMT
The test can be described thus: ELISA.

Test [5] deals with mouse PD-L1 (Sino Biological, Cat #50010-M08H) (mouse, UniProt Q9EP73 19-238). The test is described as follows: ELISA.
Sequence of mouse PD-L1 (Sino Biological, Cat #50010-M08H) (Q9EP73 19-238 limits assumed, stated change not applied): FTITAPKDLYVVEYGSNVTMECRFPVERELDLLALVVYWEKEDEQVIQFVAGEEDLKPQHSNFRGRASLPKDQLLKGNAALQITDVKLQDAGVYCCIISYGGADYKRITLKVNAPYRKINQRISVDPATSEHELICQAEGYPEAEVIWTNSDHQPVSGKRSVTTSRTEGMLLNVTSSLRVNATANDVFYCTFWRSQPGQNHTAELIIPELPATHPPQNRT
For test [6], the target named is T5, canine PD-L1 (Acro Biosystems, Cat #PDL-C52H4) (canine, UniProt E2RKZ5 19-236).
T5 construct: not shown: The vendor's tag, probably a polyhistidine tag
T5 sequence: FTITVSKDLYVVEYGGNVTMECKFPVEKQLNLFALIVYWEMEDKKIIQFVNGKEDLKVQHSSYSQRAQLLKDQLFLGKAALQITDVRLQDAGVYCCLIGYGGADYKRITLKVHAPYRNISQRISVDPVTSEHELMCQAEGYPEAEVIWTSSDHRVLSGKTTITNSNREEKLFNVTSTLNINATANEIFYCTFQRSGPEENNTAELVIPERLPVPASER
The test is described as follows: ELISA.

Test [7] addresses T6, CD86 (Sino Biological, Cat #10699-H08H) (UniProt P42081 24-245).
T6 sequence (looked up): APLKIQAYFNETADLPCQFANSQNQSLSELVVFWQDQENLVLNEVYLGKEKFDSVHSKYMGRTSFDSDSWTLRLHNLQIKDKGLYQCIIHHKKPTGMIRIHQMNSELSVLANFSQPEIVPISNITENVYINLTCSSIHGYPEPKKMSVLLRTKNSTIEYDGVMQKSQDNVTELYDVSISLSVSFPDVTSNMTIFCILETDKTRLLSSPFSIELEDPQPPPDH
The test can be described thus: ELISA.

The target of test [8] is T7, rat PD-L1 (Sino Biological, Cat #80450-R08H) (rat, UniProt D4AE25 19-239).
T7 construct: not shown: The vendor's polyhistidine tag
T7 sequence (D4AE25 entry or part of it R08H R08H limits assumed): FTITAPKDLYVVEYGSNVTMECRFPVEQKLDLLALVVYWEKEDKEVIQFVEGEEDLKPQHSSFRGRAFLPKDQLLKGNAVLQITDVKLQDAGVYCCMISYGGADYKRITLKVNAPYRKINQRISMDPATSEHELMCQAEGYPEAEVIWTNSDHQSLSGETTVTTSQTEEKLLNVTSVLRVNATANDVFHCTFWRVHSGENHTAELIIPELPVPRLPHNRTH
The test can be described thus: ELISA.

The target of test [9] is T1, human PD-L1 expressed on cell surface. The test can be described thus: cell-based or functional assay.
The target of test [10] is T8, cynomolgus PD-L1-His (Sino Biological, Cat. 90251-C08H) (cynomolgus, UniProt Q9NZQ7 19-238 (human entry)).
T8 construct: Bought protein; also called Cyno PD-L1; Cynomolgus PD-L1 ECD-His; not shown: His tag
T8 sequence (Q9NZQ7 other isoform, or with tags, fused parts or gaps C08H C08H limits assumed): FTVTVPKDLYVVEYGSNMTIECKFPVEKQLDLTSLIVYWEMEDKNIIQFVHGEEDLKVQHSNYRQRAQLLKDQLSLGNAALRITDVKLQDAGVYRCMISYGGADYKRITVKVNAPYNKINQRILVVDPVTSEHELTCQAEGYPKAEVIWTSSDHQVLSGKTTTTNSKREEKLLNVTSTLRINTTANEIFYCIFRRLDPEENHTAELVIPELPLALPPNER
The test is described as follows: ELISA, coated cyno PD-L1-His. The procedure: Briefly, Maxisorp plates (Nunc) were coated with 100 ul/well of 0.5 μg/ml human PD-L1-His (Sino Biological, Cat #10084-H08H) or cynomolgus PD-L1-His (Sino Biological, Cat. 90251-C08H) protein diluted in 1×PBS (GIBCO) overnight at 4° C. Plates were washed three times with 300 μl/well washing buffer (1×PBST, diluted from 20×PBST (Thermo Scientific) with distilled water)) and then blocked with 300 μl/well of blocking buffer (1×PBST/I % BSA) for 2 hours at RT on shaker (100 rpm). Plates were washed and added with 100 μl/well of testing antibodies, which were serial diluted with assay buffer (PBST/1% BSA). The antibodies were incubated at room temperature for 2 hours on plate shaker at 100 rpm. Plates were washed. One hundred microliter of horseradish peroxidase (HRP) conjugated detection antibody was added into each well and incubated at room temperature for 1 hour on plate shaker at 100 rpm. Plates were washed and added with 100 μl/well TMB substrate for color development at room temperature in dark for up to 10 minutes. After addition of 50 μl/well of stop solution (1N H₂SO₄), plates were read at 450 nm on a plate reader (SpectraMax M5).
as §1

T1 sequence (Q9NZQ7 19-290 limits assumed): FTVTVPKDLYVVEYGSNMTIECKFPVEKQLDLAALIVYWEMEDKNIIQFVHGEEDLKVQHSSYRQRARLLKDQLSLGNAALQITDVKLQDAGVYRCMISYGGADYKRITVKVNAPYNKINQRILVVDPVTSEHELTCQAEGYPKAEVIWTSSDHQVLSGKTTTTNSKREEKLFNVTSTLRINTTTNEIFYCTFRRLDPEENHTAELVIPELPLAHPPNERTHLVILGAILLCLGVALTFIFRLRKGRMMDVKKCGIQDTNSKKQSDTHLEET

B1: 74F4 (antibody, human IgG1, V domains shown)
VH: QEQLEESGGGLVQPEGSLTLTCTASGFSFSGDYYMSWVRQAPGKGLEWIASIYTGSLNTYYATWAKGRFTISLTSSTTVTLQMTSLTAADTATYFCARRNKNADYGHFDLWGPGTLVTVSS
VL: YDMTQTPASVEVAVGGTVTIKCQASQSINDRLAWYQQSPGQPPKLLIYGASTLASGVPSRFKGSGSGTDFTLTISDLECADAATYYCQQGWTVSSLDNAFGGGTEVVAK
In turn, B1 showed an EC50 in [1] of 1.44 nM. In addition, in test [2], the binding result is recorded as “no binding”. In test [3], the binding result is on record as “no binding”. For the same molecule, the binding result in test [4] is listed as “no binding”. Also, in [5], the binding result is recorded as “no binding”. Also, the binding result in [6] is reported as “no binding”. Also, the binding result in [7] was “no binding”. The binding result in test [8] was “no binding”. For the same molecule, in test [9], the “Internalization (%), FACS, 0.25 µg/ml, 2 h” value was 19%; the “Internalization (%), FACS, 0.25 µg/ml, 4 h” value amounted to 15.3%; the “Internalization (%), FACS, 0.5 µg/ml, 2 h” value is 22.5%; the “Internalization (%), FACS, 0.5 µg/ml, 4 h” value was found to be 15.7%. Also, in test [9], the “Internalization (%), FACS, 1 µg/ml, 2 h” value was found to be 19.5%; the “Internalization (%), FACS, 1 µg/ml, 4 h” value came to 18.2%; the “Internalization (%), FACS, 2 µg/ml, 2 h” value was determined as 24.1%; the “Internalization (%), FACS, 2 µg/ml, 4 h” value came out at 22%. The molecule further yielded an EC50 in test [10] of 0.0125 nM.

B2: 55H3/76D6 (antibody, human IgG1, V domains shown)
VH: QEQLEESGGGLVQPEGSLTLTCTVSGFSFSGDYYMSWVRQAPGKGLEWVASIYTGSLNSYYATWAKGRFTISLTSSTTVTLQMTSLTAADTATYFCARRNKNADYGHFDLWGPGTLVTVSS
VL: YDMTQTPASVEVAVGGTVTIKCQASESINDRLAWYQQKPGQPPKLLIYAASTLASGVPSRFRGSGSGTDFTLTISDLECADAATYYCQQGWTVSSLDNAFGGGTEVVAM
As for B2, the EC50 in test [1] is 2.93 nM. Also, the binding result in test [2] is “no binding”. Moreover, in test [3], the binding result was “no binding”. Besides, the binding result in test [4] is listed as “no binding”. In addition, in [5], the binding result is “no binding”. The binding result in test [6] is listed as “no binding”. Also, in test [7], the binding result is “no binding”. For the same molecule, the binding result in test [8] was “no binding”. For the same molecule, in [9], the “Internalization (%), FACS, 0.25 µg/ml, 2 h” value was found to be 22.9%; the “Internalization (%), FACS, 0.25 µg/ml, 4 h” value was determined as 20.6%; the “Internalization (%), FACS, 0.5 µg/ml, 2 h” value came out at 20.8%; the “Internalization (%), FACS, 0.5 µg/ml, 4 h” value came out at 19.9%. In test [9], the “Internalization (%), FACS, 1 µg/ml, 2 h” value was 22.1%; the “Internalization (%), FACS, 1 µg/ml, 4 h” value is 17.9%; the “Internalization (%), FACS, 2 µg/ml, 2 h” value came out at 24.2%; the “Internalization (%), FACS, 2 µg/ml, 4 h” value stood at 22.2%. The molecule further showed an EC50 in test [10] of 0.0126 nM.

B3: 27A2 (antibody, human IgG1, V domains shown)
VH: QEQLEESGGGLVQPEGSLTLTCTASGFSFSSNHYMSWVRQAPGKGLEWIGSIGVGSGITDYASWAKGRFTISKASSTTLTLQMTTLTAADTAIYFCARWTSGGGGFGLWGPGTLVTVSS
VL: QVLTQTSSPVSAAVGGTVTINCQSSQTIYSDYLFWYQQTPGQPPKLLIYQTSTLASGVPSRFKGSGSGTEFTLTISEIQCDDAATYYCQGYYSGYIWTFGGGTEVVVR
As for B3, a half-maximal effect in test [1] (EC50) was put at 0.14 nM. The binding result in test [2] is reported as “no binding”. Further, the binding result in [3] was “no binding”. The binding result in test [4] is reported as “no binding”. Also, in [5], the binding result was “no binding”. For the same molecule, the binding result in test [6] is “no binding”. Moreover, the binding result in test [7] is listed as “no binding”. Moreover, in test [8], the binding result is “no binding”. Also, in [9], the “Internalization (%), FACS, 0.25 µg/ml, 2 h” value worked out at 18.5%; the “Internalization (%), FACS, 0.25 µg/ml, 4 h” value came out at 18.3%; the “Internalization (%), FACS, 0.5 µg/ml, 2 h” value came to 15.5%; the “Internalization (%), FACS, 0.5 µg/ml, 4 h” value is 14.7%. In test [9], the “Internalization (%), FACS, 1 µg/ml, 2 h” value is 13.7%; the “Internalization (%), FACS, 1 µg/ml, 4 h” value was found to be 13.7%; the “Internalization (%), FACS, 2 µg/ml, 2 h” value is 12.7%; the “Internalization (%), FACS, 2 µg/ml, 4 h” value came to 9.7%. In addition, the EC50 in [10] came out at 0.0113 nM.

B4: 56H3 (antibody, human IgG1, V domains shown)
VH: QEQLVESGGGLVQPEGSLTLTCTASEFSFSNNYYMSWVRQAPGKGLEWLGSIGIGSGITDYASWAKGRFTISKASSTTVTLQMTTLTAADTAIYFCARWTSGGGGFGLWGPGTLVTVSS
VL: QVLTQTSSPVSAAVGGTVTINCQSSQTIYSDYLFWYQQKPGQPPKLLIYQTSTLASGVPSRFSGSGSGTQFTLTISGVQCDDAATYYCQGYYSGYIWTFGGGTEVVVN
Take B4: a half-maximal effect in test [1] (EC50) was put at 0.19 nM. For the same molecule, the binding result in [2] is recorded as “no binding”. Besides, the binding result in test [3] is reported as “no binding”. For the same molecule, the binding result in [4] is on record as “no binding”. Moreover, in [5], the binding result was “no binding”. Besides, the binding result in [6] was “no binding”. Also, the binding result in test [7] is “no binding”. In addition, the binding result in test [8] is “no binding”. In test [9], the “Internalization (%), FACS, 0.25 µg/ml, 2 h” value came to 16.3%; the “Internalization (%), FACS, 0.25 µg/ml, 4 h” value came to 16%; the “Internalization (%), FACS, 0.5 µg/ml, 2 h” value came to 16.1%; the “Internalization (%), FACS, 0.5 µg/ml, 4 h” value came out at 19%. In addition, in test [9], the “Internalization (%), FACS, 1 µg/ml, 2 h” value turned out to be 15.3%; the “Internalization (%), FACS, 1 µg/ml, 4 h” value is 9.1%; the “Internalization (%), FACS, 2 µg/ml, 2 h” value is 6.5%; the “Internalization (%), FACS, 2 µg/ml, 4 h” value worked out at 4.8%. Further, the EC50 in test [10] was found to be 0.0076 nM.
